The target of assay [1] is p62 PH domain (Homo sapiens) (UniProt P32780). Conditions: cited from earlier work.
The target is the same in assay [2]. The settings on record: cited from earlier work. This is another data set of the same source.
For assay [3] the target is unchanged. Conditions: cited from earlier work. The source holds these as a separate data set.
Assay [4] deals with p62 (Tfb1) PH domain (Saccharomyces cerevisiae) (UniProt P32776). Conditions: cited from earlier work.
Assay [5] deals with T1, PH domain (1–115) of TFIIH p62 subunit (S. cerevisiae, UniProt P32776 1-115).
T1 construct: also called PH domain of p62; p62 PH domain; source: E. coli Rosetta 2(DE3), purified (Glutathione Sepharose, released by PreScission protease cleavage)
T1 sequence (looked up): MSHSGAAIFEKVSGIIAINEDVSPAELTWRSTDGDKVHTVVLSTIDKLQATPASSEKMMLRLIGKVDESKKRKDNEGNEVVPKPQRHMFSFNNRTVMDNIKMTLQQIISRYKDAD
In words: pull-down; GST beads with GST-tagged Elf1 proteins mixed with purified PH domain of p62; 23 °C, 1 h; washed twice in 20 mM HEPES pH 7.4, 5% glycerol; SDS-PAGE. Conditions: both partners purified.

For assay [6], the target named is T1, PH domain (1–115) of TFIIH p62 subunit. In words: BLI; Octet K2; GST-Elf1-CTD immobilised on GST-specific biosensors; PH domain of p62 at 30, 15, 7.5, 3.75 and 0 µM; 20 mM Tris-HCl pH 7.5, 5% glycerol, 1 mM DTT; association 2 min, dissociation 3 min. The settings on record: both partners purified. For orientation: BLI is a label-free optical method that tracks binding on a fibre tip over time.

Numbering of substitutions follows the chain as printed. In names and notes the source's numbering stands. Like-named read-outs stand apart in the source and are kept apart here.

The Kd is the free concentration of one partner at which half of the binding sites on the other are occupied at equilibrium, for simple one-to-one binding.

p62 PH domain (Homo sapiens), sequence (P32780 1-108): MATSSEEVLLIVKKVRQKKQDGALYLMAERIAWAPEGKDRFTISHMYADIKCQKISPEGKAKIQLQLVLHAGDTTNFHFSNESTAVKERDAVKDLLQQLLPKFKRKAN

On to TFIIEα TIR (from UniProt P29083), for which, in assay [1], the equilibrium dissociation constant (Kd) is 45 nM. Turning to UVSSA TIR (from UniProt Q2YD98), the Kd in assay [2] was 71 nM. On to DP1 TIR (from UniProt Q14186), for which the Kd in assay [3] is 35.3 µM. In the case of Rad4 TIR (from UniProt P14736), in assay [4], the Kd is 50 nM.

B1: GST-Elf1 residues 85–122 (domain or fragment, S. cerevisiae, UniProt P36053 85-122, looked up)
chain: GSDTDDGDEGSDSDYESDSEQDAKTQNDGEIDSDEEEV
notes: source: E. coli Rosetta 2(DE3), purified (Glutathione Sepharose, Superdex 200)
Consider B1, for which the binding result in assay [5] was “binds”.

B2: GST-Elf1-CTD (residues 85–145) (domain or fragment, S. cerevisiae, UniProt P36053 85-145, looked up)
chain: GSDTDDGDEGSDSDYESDSEQDAKTQNDGEIDSDEEEVDSDEERIGQVKRGRGALVDSDDE
notes: also called WT CTD; Elf1 C-terminal domain; source: E. coli Rosetta 2(DE3), purified (Glutathione Sepharose, Superdex 200)
With B2, the affinity in assay [6], expressed as Kd, was 3.82 µM.

B3: GST-Elf1-CTD I115A (residues 85–145) (domain or fragment, S. cerevisiae, UniProt P36053 85-145, looked up)
chain: B2 chain with I31A
notes: also called I115A control; source: E. coli Rosetta 2(DE3), purified (Glutathione Sepharose, Superdex 200)
B3: in assay [5], the binding result is “binds”.

B4: GST-Elf1-CTD Y99A mutant (residues 85–145) (domain or fragment, S. cerevisiae, UniProt P36053 85-145, looked up)
chain: B2 chain with Y15A
notes: also called Y99A GST-Elf1-CTD; Y99A mutant CTD; source: E. coli Rosetta 2(DE3), purified (Glutathione Sepharose, Superdex 200)
In assay [6], B4 had a Kd of 7.32 µM.

B5: GST-Elf1 residues 85–113 (domain or fragment, S. cerevisiae, UniProt P36053 85-113, looked up)
chain: GSDTDDGDEGSDSDYESDSEQDAKTQNDG
notes: elongation factor-1 (Elf1), S. cerevisiae, residues 85-113 (truncated CTD); source: E. coli Rosetta 2(DE3), purified (Glutathione Sepharose, Superdex 200)
With B5, the binding result in assay [5] is “binds”.

Values taken from paper PMC11266705, “Elf1 promotes transcription-coupled repair in yeast by using its C-terminal domain to bind TFIIH” (Nature Communications, 2024).
